Reference: US20230303680A1 (UNIVERSIT T Z RICH, published 2023)

Tests used:
[1] = target: T1, human interleukin-2 (recombinant human IL-2, teceleukin) (human, UniProt P60568 21-153); experiment: single-cycle surface plasmon resonance (SPR)
T1 construct: also called hIL-2; rhIL-2

[2] = target: T1, human interleukin-2 (recombinant human …); experiment: SPR
[3] = target: T1, human interleukin-2 (recombinant human …); experiment: SPR; remark: listed apart in the source
Method: (§1) Chip surface was regenerated after every cycle using glycine buffer pH 1.5. Measurements were acquired at 20° C. and analysed on a Biacore T100 (GE Healthcare).

[4] = target: T1, human interleukin-2 (recombinant human …); experiment: SPR, mAb immobilized, IL-2 injected
Method: as §1

T1 sequence (P60568 21-153 limits assumed): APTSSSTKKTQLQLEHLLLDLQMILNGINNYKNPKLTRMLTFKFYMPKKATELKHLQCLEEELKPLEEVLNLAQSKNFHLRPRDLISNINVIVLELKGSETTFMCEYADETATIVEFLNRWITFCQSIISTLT

Binder	Kd [2]	koff [2]	kon [2]	other results
4 + 9 (antibody, V domains shown, UFKA-20 variant; also called UFKA-20 variant 4+9; vH chain 4, vL chain 9; copies: 2 + 2) VH: EVMLVESGGGLVKPGGSLKLSCAASGFSFSNYAMSWVRQTPERRLEWVALISGGGRYSYYPDSLKGRFTISRDSARNSLYLQMSSLRSEDTAMYYCARHMGHNDYLAWFAYWGQGTLVTVSS VL: DIVMTQSPSSLAVSVGQKVTMSCKSSQSLLNSANQRNYLAWYQQKPGQSPKLLIYWASTRESGVPDRFIGSGSGTDFTLNISSVQAEDLADYFCQQYYSAPPWTFGGGTKLEIKR				Kd [1]: 1.02 nM
103 + 6 (antibody, V domains shown, UFKA-20 variant; copies: 2 + 2) VH: EVMLVESGGGLVKPGGSLKLSCAASGFSFSNYAMSWVRQTPERRLEWVALISGGGSYSYYPDSLKGRFTISRDSARNSLYLQMSSLRSEDTAMYYCARHMGYADYLAWFAYWGQGTLVTVSS VL: not shown				Kd [1]: 2.09 nM
105 + 9 (antibody, V domains shown, UFKA-20 variant; also called UFKA-20 variant 105+9; vH chain 105, vL chain 9; copies: 2 + 2) VH: EVMLVESGGGLVKPGGSLKLSCAASGFSFSNYAMSWVRQTPERRLEWVALISGGGSYSYYPDSLKGRFTISRDSARNSLYLQMSSLRSEDTAMYYCARHMGYNDALAWFAYWGQGTLVTVSS VL: DIVMTQSPSSLAVSVGQKVTMSCKSSQSLLNSANQRNYLAWYQQKPGQSPKLLIYWASTRESGVPDRFIGSGSGTDFTLNISSVQAEDLADYFCQQYYSAPPWTFGGGTKLEIKR				Kd [1]: 0.271 nM
4 + 10 (antibody, V domains shown, UFKA-20 variant; also called UFKA-20 variant 4+10; vH chain 4, vL chain 10; copies: 2 + 2) VH: EVMLVESGGGLVKPGGSLKLSCAASGFSFSNYAMSWVRQTPERRLEWVALISGGGRYSYYPDSLKGRFTISRDSARNSLYLQMSSLRSEDTAMYYCARHMGHNDYLAWFAYWGQGTLVTVSS VL: DIVMTQSPSSLAVSVGQKVTMSCKSSQSLLNVSNQRNYLAWYQQKPGQSPKLLIYFASTRESGVPDRFIGSGSGTDFTLNISSVQAEDLADYFCQQYYSCPPWTFGGGTKLEIKR				Kd [1]: 33.6 nM
105 + 6 (antibody, V domains shown, UFKA-20 variant; also called UFKA-20 variant 105+6; vH chain 105, vL chain 6; copies: 2 + 2) VH: EVMLVESGGGLVKPGGSLKLSCAASGFSFSNYAMSWVRQTPERRLEWVALISGGGSYSYYPDSLKGRFTISRDSARNSLYLQMSSLRSEDTAMYYCARHMGYNDALAWFAYWGQGTLVTVSS VL: not shown				Kd [1]: 0.429 nM
103 + 9 (antibody, V domains shown, UFKA-20 variant; copies: 2 + 2) VH: EVMLVESGGGLVKPGGSLKLSCAASGFSFSNYAMSWVRQTPERRLEWVALISGGGSYSYYPDSLKGRFTISRDSARNSLYLQMSSLRSEDTAMYYCARHMGYADYLAWFAYWGQGTLVTVSS VL: DIVMTQSPSSLAVSVGQKVTMSCKSSQSLLNSANQRNYLAWYQQKPGQSPKLLIYWASTRESGVPDRFIGSGSGTDFTLNISSVQAEDLADYFCQQYYSAPPWTFGGGTKLEIKR				Kd [1]: 2.7 nM
UFKA-22-10 (antibody, human IgG1, V domains shown) VH: EVQLVESGGGLVKPGGSLRLSCAASGFSFSNYAMSWVRQAPGKGLEWVSLISGGGSYSYYPDSLKGRFTISRDSAKNSLYLQMSSLRAEDTAVYYCARHMGYNDYLAWFAYWGQGTLVTVSS VL: DIVMTQSPDSLAVSLGERATINCKSSQSLLNSANQKNYLAWYQQKPGQPPKLLIYFASTRESGVPDRFIGSGSGTDFTLTISSLQAEDVAVYYCQQYYSAPPWTFGGGTKVEIK	5.16 nM	0.00283 s⁻¹	548000 M⁻¹ s⁻¹	
UFKA-22-00 (humanized UFKA-20) (antibody, human IgG1, kappa, N297A, V domains shown, Human IgG1 with N297A) VH: EVQLVESGGGLVKPGGSLRLSCAASGFSFSNYAMSWVRQAPGKGLEWVSLISGGGSYSYYPDSLKGRFTISRDNAKNSLYLQMNSLRAEDTAVYYCARHMGYNDYLAWFAYWGQGTLVTVSS VL: not shown	5.13 nM	0.00239 s⁻¹	466000 M⁻¹ s⁻¹	Kd [3]: 5.13 nM; koff [3]: 0.00239 s⁻¹; kon [3]: 466000 M⁻¹ s⁻¹
UFKA-22-01 (antibody, human IgG1, V domains shown) VH: EVQLVESGGGLVKPGGSLRLSCAASGFSFSNYAMSWVRQAPGKGLEWVSLISGGGSYSYYPDSLKGRFTISRDSAKNSLYLQMNSLRAEDTAVYYCARHMGYNDYLAWFAYWGQGTLVTVSS VL: not shown	5.31 nM	0.00252 s⁻¹	475000 M⁻¹ s⁻¹	
UFKA-22-08 (antibody, human IgG1, V domains shown) VH: EVQLVESGGGLVKPGGSLRLSCAASGFSFSNYAMSWVRQAPGKGLEWVSLISGGGSYSYYPDSLKGRFTISRDSAKNSLYLQMNSLRAEDTAVYYCARHMGYNDYLAWFAYWGQGTLVTVSS VL: DIVMTQSPDSLAVSLGERATINCKSSQSLLNSANQKNYLAWYQQKPGQPPKLLIYFASTRESGVPDRFIGSGSGTDFTLTISSLQAEDVAVYYCQQYYSAPPWTFGGGTKVEIK	5.33 nM	0.00275 s⁻¹	515000 M⁻¹ s⁻¹	
UFKA-22-03 (antibody, human IgG1, V domains shown) VH: EVQLVESGGGLVKPGGSLRLSCAASGFSFSNYAMSWVRQAPGKGLEWVSLISGGGSYSYYPDSLKGRFTISRDSAKNSLYLQMSSLRAEDTAVYYCARHMGYNDYLAWFAYWGQGTLVTVSS VL: not shown	4.73 nM	0.00279 s⁻¹	590000 M⁻¹ s⁻¹	
UFKA-22-11 (antibody, human IgG1, V domains shown) VH: EVQLVESGGGLVKPGGSLRLSCAASGFSFSNYAMSWVRQAPGKGLEWVSLISGGGSYSYYPDSLKGRFTISRDSAKNSLYLQMNSLRAEDTAMYYCARHMGYNDYLAWFAYWGQGTLVTVSS VL: DIVMTQSPDSLAVSLGERATINCKSSQSLLNSANQKNYLAWYQQKPGQPPKLLIYFASTRESGVPDRFIGSGSGTDFTLTISSLQAEDVAVYYCQQYYSAPPWTFGGGTKVEIK	5.31 nM	0.00275 s⁻¹	517000 M⁻¹ s⁻¹	
UFKA-22-06 (antibody, human IgG1, V domains shown) VH: EVQLVESGGGLVKPGGSLRLSCAASGFSFSNYAMSWVRQAPGKGLEWVSLISGGGSYSYYPDSLKGRFTISRDSAKNSLYLQMSSLRAEDTAMYYCARHMGYNDYLAWFAYWGQGTLVTVSS VL: not shown	4.45 nM	0.00252 s⁻¹	567000 M⁻¹ s⁻¹	
UFKA-22-12 (antibody, human IgG1, V domains shown) VH: EVQLVESGGGLVKPGGSLRLSCAASGFSFSNYAMSWVRQAPGKGLEWVSLISGGGSYSYYPDSLKGRFTISRDNAKNSLYLQMSSLRAEDTAMYYCARHMGYNDYLAWFAYWGQGTLVTVSS VL: DIVMTQSPDSLAVSLGERATINCKSSQSLLNSANQKNYLAWYQQKPGQPPKLLIYFASTRESGVPDRFIGSGSGTDFTLTISSLQAEDVAVYYCQQYYSAPPWTFGGGTKVEIK	5.05 nM	0.0024 s⁻¹	474000 M⁻¹ s⁻¹	
UFKA-22-14 (antibody, human IgG1, V domains shown) VH: EVQLVESGGGLVKPGGSLRLSCAASGFSFSNYAMSWVRQAPGKGLEWVSLISGGGSYSYYPDSLKGRFTISRDNAKNSLYLQMNSLRAEDTAVYYCARHMGYNDYLAWFAYWGQGTLVTVSA VL: DIVMTQSPDSLAVSLGERATINCKSSQSLLNSANQKNYLAWYQQKPGQPPKLLIYFASTRESGVPDRFIGSGSGTDFTLTISSLQAEDVAVYYCQQYYSAPPWTFGGGTKVEIK	4.3 nM	0.0024 s⁻¹	560000 M⁻¹ s⁻¹	
UFKA-22-09 (antibody, human IgG1, V domains shown) VH: EVQLVESGGGLVKPGGSLRLSCAASGFSFSNYAMSWVRQAPGKGLEWVSLISGGGSYSYYPDSLKGRFTISRDNAKNSLYLQMSSLRAEDTAVYYCARHMGYNDYLAWFAYWGQGTLVTVSS VL: DIVMTQSPDSLAVSLGERATINCKSSQSLLNSANQKNYLAWYQQKPGQPPKLLIYFASTRESGVPDRFIGSGSGTDFTLTISSLQAEDVAVYYCQQYYSAPPWTFGGGTKVEIK	5.27 nM	0.00246 s⁻¹	466000 M⁻¹ s⁻¹	
UFKA-22-02 (antibody, human IgG1, V domains shown) VH: EVQLVESGGGLVKPGGSLRLSCAASGFSFSNYAMSWVRQAPGKGLEWVSLISGGGSYSYYPDSLKGRFTISRDNAKNSLYLQMSSLRAEDTAVYYCARHMGYNDYLAWFAYWGQGTLVTVSS VL: not shown	5.51 nM	0.00227 s⁻¹	412000 M⁻¹ s⁻¹	Kd [3]: 5.51 nM; koff [3]: 0.00227 s⁻¹; kon [3]: 412000 M⁻¹ s⁻¹
UFKA-22-07 (antibody, human IgG1, V domains shown) VH: EVQLVESGGGLVKPGGSLRLSCAASGFSFSNYAMSWVRQAPGKGLEWVSLISGGGSYSYYPDSLKGRFTISRDNAKNSLYLQMNSLRAEDTAVYYCARHMGYNDYLAWFAYWGQGTLVTVSS VL: DIVMTQSPDSLAVSLGERATINCKSSQSLLNSANQKNYLAWYQQKPGQPPKLLIYFASTRESGVPDRFIGSGSGTDFTLTISSLQAEDVAVYYCQQYYSAPPWTFGGGTKVEIK	5.17 nM	0.00251 s⁻¹	486000 M⁻¹ s⁻¹	Kd [3]: 5.17 nM; koff [3]: 0.00251 s⁻¹; kon [3]: 486000 M⁻¹ s⁻¹
UFKA-22-05 (antibody, human IgG1, V domains shown) VH: EVQLVESGGGLVKPGGSLRLSCAASGFSFSNYAMSWVRQAPGKGLEWVSLISGGGSYSYYPDSLKGRFTISRDNAKNSLYLQMSSLRAEDTAMYYCARHMGYNDYLAWFAYWGQGTLVTVSS VL: not shown	4.86 nM	0.0022 s⁻¹	452000 M⁻¹ s⁻¹	
UFKA-22-13 (antibody, human IgG1, V domains shown) VH: EVQLVESGGGLVKPGGSLRLSCAASGFSFSNYAMSWVRQAPGKGLEWVSLISGGGSYSYYPDSLKGRFTISRDSAKNSLYLQMSSLRAEDTAMYYCARHMGYNDYLAWFAYWGQGTLVTVSS VL: DIVMTQSPDSLAVSLGERATINCKSSQSLLNSANQKNYLAWYQQKPGQPPKLLIYFASTRESGVPDRFIGSGSGTDFTLTISSLQAEDVAVYYCQQYYSAPPWTFGGGTKVEIK	4.56 nM	0.00277 s⁻¹	607000 M⁻¹ s⁻¹	
UFKA-22-04 (antibody, human IgG1, V domains shown) VH: EVQLVESGGGLVKPGGSLRLSCAASGFSFSNYAMSWVRQAPGKGLEWVSLISGGGSYSYYPDSLKGRFTISRDSAKNSLYLQMNSLRAEDTAMYYCARHMGYNDYLAWFAYWGQGTLVTVSS VL: not shown	5.03 nM	0.00241 s⁻¹	479000 M⁻¹ s⁻¹	
NARA1 (anti-human IL-2 mAb, CD122-biasing) (antibody, V domains shown) VH: QVQLQQSGAELVRPGTSVKVSCKASGYAFTNYLIEWVKQRPGQGLEWIGVINPGSGGTNYNEKFKGKATLTADKSSSTAYMQLSSLTSDDSAVYFCARWRGDGYYAYFDVWGAGTTVTVSS VL: not shown				Kd [4]: 4.2 nM; koff [4]: 0.000117 s⁻¹; kon [4]: 30000 M⁻¹ s⁻¹
